Source: paper PMC8298264, “Function of cofactor Akirin2 in the regulation of gene expression in model human neutrophil-like HL60 cells” (Bioscience Reports, 2021)

B1: sp¦P10515¦ODP2_HUMAN (protein, UniProt P10515 87-647, looked up)
Dihydrolipoyllysine-residue …: SLPPHQKVPLPSLSPTMQAGTIARWEKKEGDKINEGDLIAEVETDKATVGFESLEECYMAKILVAEGTRDVPIGAIICITVGKPEDIEAFKNYTLDSSAAPTPQAAPAPTPAATASPPTPSAQAPGSSYPPHMQVLLPALSPTMTMGTVQRWEKKVGEKLSEGDLLAEIETDKATIGFEVQEEGYLAKILVPEGTRDVPLGTPLCIIVEKEADISAFADYRPTEVTDLKPQVPPPTPPPVAAVPPTPQPLAPTPSAPCPATPAGPKGRVFVSPLAKKLAVEKGIDLTQVKGTGPDGRITKKDIDSFVPSKVAPAPAAVVPPTGPGMAPVPTGVFTDIPISNIRRVIAQRLMQSKQTIPHYYLSIDVNMGEVLLVRKELNKILEGRSKISVNDFIIKASALACLKVPEANSSWMDTVIRQNHVVDVSVAVSTPAGLITPIVFNAHIKGVETIANDVVSLATKAREGKLQPHEFQGGTFTISNLGMFGIKNFSAIINPPQACILAIGASEDKLVPADNEKGFDVASMMSVTLSCDHRVVDGAVGAQWLAEFRKYLEKPITMLL
B2: sp¦Q9H9B4¦SFXN1_HUMAN (protein, UniProt Q9H9B4 2-322, looked up)
Sideroflexin-1: SGELPPNINIKEPRWDQSTFIGRANHFFTVTDPRNILLTNEQLESARKIVHDYRQGIVPPGLTENELWRAKYIYDSAFHPDTGEKMILIGRMSAQVPMNMTITGCMMTFYRTTPAVLFWQWINQSFNAVVNYTNRSGDAPLTVNELGTAYVSATTGAVATALGLNALTKHVSPLIGRFVPFAAVAAANCINIPLMRQRELKVGIPVTDENGNRLGESANAAKQAITQVVVSRILMAAPGMAIPPFIMNTLEKKAFLKRFPWMSAPIQVGLVGFCLVFATPLCCALFPQKSSMSVTSLEAELQAKIQESHPELRRVYFNKGL
B3: sp¦Q53GQ0¦DHB12_HUMAN (protein, UniProt Q53GQ0 1-312, looked up)
Very-long-chain 3-oxoacyl-CoA …: MESALPAAGFLYWVGAGTVAYLALRISYSLFTALRVWGVGNEAGVGPGLGEWAVVTGSTDGIGKSYAEELAKHGMKVVLISRSKDKLDQVSSEIKEKFKVETRTIAVDFASEDIYDKIKTGLAGLEIGILVNNVGMSYEYPEYFLDVPDLDNVIKKMININILSVCKMTQLVLPGMVERSKGAILNISSGSGMLPVPLLTIYSATKTFVDFFSQCLHEEYRSKGVFVQSVLPYFVATKLAKIRKPTLDKPSPETFVKSAIKTVGLQSRTNGYLIHALMGSIISNLPSWIYLKIVMNMNKSTRAHYLKKTKKN
B4: sp¦Q96JJ7¦TMX3_HUMAN (protein, UniProt Q96JJ7 25-454, looked up)
Protein disulfide-isomerase …: KGFVEDLDESFKENRNDDIWLVDFYAPWCGHCKKLEPIWNEVGLEMKSIGSPVKVGKMDATSYSSIASEFGVRGYPTIKLLKGDLAYNYRGPRTKDDIIEFAHRVSGALIRPLPSQQMFEHMQKRHRVFFVYVGGESPLKEKYIDAASELIVYTYFFSASEEVVPEYVTLKEMPAVLVFKDETYFVYDEYEDGDLSSWINRERFQNYLAMDGFLLYELGDTGKLVALAVIDEKNTSVEHTRLKSIIQEVARDYRDLFHRDFQFGHMDGNDYINTLLMDELTVPTVVVLNTSNQQYFLLDRQIKNVEDMVQFINNILDGTVEAQGGDSILQRLKRIVFDAKSTIVSIFKSSPLMGCFLFGLPLGVISIMCYGIYTADTDGGYIEERYEVSKSENENQEQIEESKEQQEPSSGGSVVPTVQEPKDVLEKKKD

Tested on: human HL60 cells
Test: SWATH-MS proteomics, differential protein representation, akirin2 KO vs WT HL60 cells
Assay type: cell-based
Settings: akirin2 KO vs WT HL60 cells, sheet "Under-represented in KO"
Summary of the method: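 WT and akirin2 KO HL60 lysates (150 µg, n=3 biological replicates) were FASP trypsin-digested and desalted. A spectral library was built by IDA from 3 µg digests, then 5 µg per sample went to variable-window SWATH DIA over a 120-min 5–30% acetonitrile gradient. Identifications were accepted at 1% global FDR, with total-area-sum normalization.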

Molecule | Fold Change (KO vs WT) | Log (Fold Change) (KO vs WT) | Fold Change | Log (Fold Change)
B1 | 0.571 | -0.2434 | – | –
B2 | 0.5707 | -0.2436 | – | –
B3 | 0.5753 | -0.2401 | – | –
B4 | – | – | 0.267 | -0.5736
